Reference: the supplement of paper PMC9112550, “Optimization of the antimicrobial peptide Bac7 by deep mutational scanning” (BMC Biology, 2022)

These sequences were tested on Escherichia coli TOP10 (assay: shrunken log2 fold change of peptide-encoding DNA abundance (4.5 h post-induction vs induction); higher = less antimicrobial activity (less host growth inhibition)). Conditions: time post-induction: 4.5 h; library: site-saturation at positions 5, 18, 19, 20.
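Also: peptides expressed intracellularly from a pBAD plasmid library in pooled LB shake-flask culture, induced with 0.3% L-arabinose, DNA abundance read by NGS, three biological replicates, DESeq2 with apeglm shrinkage.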

Row | Sequence | shrunken log2 fold change
1 | RRIRRRPPRLPRPRPRPYFVPRP | -0.381
2 | RRIRHRPPRLPRPRPRPVAEPRP | 0.232
3 | RRIRFRPPRLPRPRPRPEIIPRP | -0.0938
4 | RRIRVRPPRLPRPRPRPRDWPRP | 0.274
5 | RRIRERPPRLPRPRPRPSFIPRP | -0.906
6 | RRIRTRPPRLPRPRPRPQTIPRP | -0.717
7 | RRIRPRPPRLPRPRPRPLQTPRP | 0.0208
8 | RRIRCRPPRLPRPRPRPQMIPRP | -1.55
9 | RRIRKRPPRLPRPRPRPFYAPRP | -0.0279
10 | RRIRHRPPRLPRPRPRPYYCPRP | -0.541
11 | RRIRSRPPRLPRPRPRPILFPRP | -0.445
12 | RRIRVRPPRLPRPRPRPWRRPRP | 0.208
13 | RRIRVRPPRLPRPRPRPVVYPRP | 0.0805
14 | RRIRTRPPRLPRPRPRPHCEPRP | 0.023
15 | RRIRWRPPRLPRPRPRPATAPRP | 0.983
16 | RRIRERPPRLPRPRPRPDRTPRP | -0.0361
17 | RRIRQRPPRLPRPRPRPQCYPRP | -0.168
18 | RRIRHRPPRLPRPRPRPKRPPRP | 0.354
19 | RRIRDRPPRLPRPRPRPNIAPRP | 0.169
20 | RRIRMRPPRLPRPRPRPFGGPRP | 0.222

Row | Sequence | shrunken log2 fold change
21 | RRIRVRPPRLPRPRPRPPRQPRP | 0.583
22 | RRIRIRPPRLPRPRPRPYSYPRP | -0.0485
23 | RRIRPRPPRLPRPRPRPDRTPRP | -0.25
24 | RRIRFRPPRLPRPRPRPAAMPRP | 1.58
25 | RRIRTRPPRLPRPRPRPNPMPRP | -0.383
26 | RRIRWRPPRLPRPRPRPKTTPRP | -0.0128
27 | RRIRRRPPRLPRPRPRPFNHPRP | -0.275
28 | RRIRFRPPRLPRPRPRPHFIPRP | -0.473
29 | RRIRQRPPRLPRPRPRPTTWPRP | -0.0695
30 | RRIRLRPPRLPRPRPRPNPKPRP | -0.0548
31 | RRIRRRPPRLPRPRPRPFIKPRP | -0.368
32 | RRIRARPPRLPRPRPRPLPKPRP | 0.748
33 | RRIRRRPPRLPRPRPRPVFRPRP | 0.226
34 | RRIRPRPPRLPRPRPRPKQVPRP | -0.0541
35 | RRIRARPPRLPRPRPRPWWLPRP | -8.93e-05
36 | RRIRHRPPRLPRPRPRPHCAPRP | -0.109
37 | RRIRKRPPRLPRPRPRPIEFPRP | 0.0427
38 | RRIRERPPRLPRPRPRPHMTPRP | 0.0464
39 | RRIRARPPRLPRPRPRPTGEPRP | 0.0455
40 | RRIRYRPPRLPRPRPRPTPVPRP | -0.0457

Row | Sequence | shrunken log2 fold change
41 | RRIRFRPPRLPRPRPRPQQGPRP | -0.0566
42 | RRIRCRPPRLPRPRPRPFVLPRP | -0.469
43 | RRIRTRPPRLPRPRPRPSYHPRP | -0.833
44 | RRIRERPPRLPRPRPRPAYVPRP | -0.859
45 | RRIRCRPPRLPRPRPRPNREPRP | -0.134
46 | RRIRNRPPRLPRPRPRPPTSPRP | 0.298
47 | RRIRARPPRLPRPRPRPVCSPRP | 0.665
48 | RRIRARPPRLPRPRPRPQTGPRP | 0.242
49 | RRIRWRPPRLPRPRPRPICNPRP | -0.0133
50 | RRIRDRPPRLPRPRPRPHMKPRP | -0.467
51 | RRIRLRPPRLPRPRPRPNRSPRP | -0.0205
52 | RRIRFRPPRLPRPRPRPRKRPRP | 0.263
53 | RRIRYRPPRLPRPRPRPHGLPRP | 0.0126
54 | RRIRPRPPRLPRPRPRPVNFPRP | -0.59
55 | RRIRTRPPRLPRPRPRPAVQPRP | 0.0481
56 | RRIRTRPPRLPRPRPRPDAEPRP | 0.117
57 | RRIRMRPPRLPRPRPRPAVCPRP | 0.103
58 | RRIRLRPPRLPRPRPRPQCFPRP | -0.0127
59 | RRIRNRPPRLPRPRPRPSNPPRP | 0.0568
60 | RRIRWRPPRLPRPRPRPMCRPRP | -0.117
